Experimental data: patent US20230219996A1

Tests used:
[1] = target: SARS-CoV-2 spike (Wuhan, wild-type) (SARS-CoV-2) (UniProt P0DTC2); assay: MSD V-PLEX ACE2 kit, sVNT, positive control; competitor ACE2 (NHP study)
[2] = target: SARS-CoV-2 spike (Wuhan, wild-type) (SARS-CoV-2) (UniProt P0DTC2); assay: MSD V-PLEX ACE2 kit, sVNT, positive control; competitor ACE2 (mouse study)

ACE2 Calibration Reagent (included in the MSD kit)
ACE2-binding percent inhibition [1]: 100%
ACE2-binding percent inhibition [2]: 100%
